According to US20210155961:

Biological target: T1, LvaB (untagged)
T1 chain: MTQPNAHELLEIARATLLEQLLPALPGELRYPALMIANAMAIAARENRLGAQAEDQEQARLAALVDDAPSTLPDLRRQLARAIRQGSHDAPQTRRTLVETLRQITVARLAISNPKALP

B1: MBP-LvaA (LvaA N-terminally tagged with maltose binding protein) (protein)
chain: MSSSPTISPASDTFAAMTDDHRLAEFIREQASATRVVIQARKRLSGGAIQENWLLDLLIEGGPWAGVRRWVLRSDALSALPASLDREQEFAVLQVVYQAGVKVPRPLWLCRDVRVHGRVFFLMEYVPGSAAGRALSTGAGPQGRAQLATQLGANLARLHQVRPPCATLCFLSVPDSSPALATIDAYRRYLDTLADAYPVLEWGLRWCELHAPRSSTLCLLHRDYRTGNYLASEEGLEAVLDWEFTGWGDPCEDLGWFTARCWRFTRPDLEAGGIGQLEDFLRGYHEVSSLCIERSRLHYWQVMATLRWAVIALQQGQRHLSGEEPSLELALTARLLPELELDILHMTGAEAP
Q: For B1, which “abundance of CoA species by LC/MS in in vitro enzyme reactions (4HV-CoA to 4PV-CoA)” value is on record?
A: Its value is “A decrease of 4HV-CoA and an increase of the predicted 4PV-CoA intermediate was seen only when all four of the enzymes were present”.
